The text below walks through data of patent publication US20150020221A1.

The target of this experiment is PARP1 (endogenous, Hela cell lysate) (human) (UniProt P09874). Kind of experiment: scanning densitometry of PARP1 immunoprecipitates from Hela cells (FIG. 4B).
PARP1 (endogenous, Hela cell lysate) (human), sequence (P09874 2-1014 limits assumed): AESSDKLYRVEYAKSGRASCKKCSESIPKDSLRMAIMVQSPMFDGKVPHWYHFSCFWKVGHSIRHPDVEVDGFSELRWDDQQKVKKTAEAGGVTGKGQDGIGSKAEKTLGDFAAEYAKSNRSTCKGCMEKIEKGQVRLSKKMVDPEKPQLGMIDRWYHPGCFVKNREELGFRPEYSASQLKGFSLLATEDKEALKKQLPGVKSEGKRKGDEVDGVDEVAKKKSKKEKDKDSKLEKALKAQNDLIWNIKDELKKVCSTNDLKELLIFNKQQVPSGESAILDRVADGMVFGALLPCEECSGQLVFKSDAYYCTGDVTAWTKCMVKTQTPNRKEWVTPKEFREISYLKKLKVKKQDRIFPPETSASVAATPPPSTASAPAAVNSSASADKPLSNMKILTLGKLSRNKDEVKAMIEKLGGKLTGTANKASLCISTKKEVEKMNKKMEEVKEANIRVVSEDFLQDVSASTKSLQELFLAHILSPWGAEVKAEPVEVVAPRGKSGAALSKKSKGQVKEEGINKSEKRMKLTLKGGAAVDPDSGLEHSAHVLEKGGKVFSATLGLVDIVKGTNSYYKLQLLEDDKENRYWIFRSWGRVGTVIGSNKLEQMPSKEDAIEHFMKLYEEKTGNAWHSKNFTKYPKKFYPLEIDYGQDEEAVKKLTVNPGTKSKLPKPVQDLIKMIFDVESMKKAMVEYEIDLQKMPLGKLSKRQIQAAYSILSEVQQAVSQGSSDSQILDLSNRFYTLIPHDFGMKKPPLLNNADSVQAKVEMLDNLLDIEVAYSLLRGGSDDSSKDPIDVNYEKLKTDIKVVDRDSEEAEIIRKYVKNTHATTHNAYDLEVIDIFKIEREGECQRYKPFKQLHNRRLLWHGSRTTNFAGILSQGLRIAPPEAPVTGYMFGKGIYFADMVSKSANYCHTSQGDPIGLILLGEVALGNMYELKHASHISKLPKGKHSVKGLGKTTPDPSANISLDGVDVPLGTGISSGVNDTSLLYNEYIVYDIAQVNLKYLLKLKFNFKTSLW

In turn, “BAL1 (endogenous, Hela cell lysate) (from UniProt Q8IXQ6 1-854)” registered a fold increase co-immunoprecipitated with PARP1 (Dox-treated versus untreated cells) of 4.8 fold.
